Molecular target: CIB1N-DBD (CIB1N (1-170) fused to the Gal4 DNA binding domain) (Arabidopsis thaliana) (UniProt Q8GY61)
Test: two-hybrid

Sequence of UniProt Q8GY61 (Q8GY61 1-170): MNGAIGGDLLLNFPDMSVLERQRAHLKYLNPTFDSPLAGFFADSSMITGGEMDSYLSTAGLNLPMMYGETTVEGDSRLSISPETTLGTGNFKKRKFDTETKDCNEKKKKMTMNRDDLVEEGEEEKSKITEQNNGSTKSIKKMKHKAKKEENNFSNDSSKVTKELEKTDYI

Question: How did the β-Gal Light turn out when “CRY2PHR-AD (CRY2PHR fused to the Gal4 activation domain) (from UniProt Q96524 1-498) (domain or fragment)” was run?
Answer: 47.1
